Like-named read-outs stand apart in the source and are kept apart here.
Experiments:
Baboon EL-C2 tag [1] = target: T1, Baboon EL-C2 tag (baboon, UniProt Q9Y5X9 21-500 (human entry), limits assumed); test: cell-based or functional assay
T1 chain: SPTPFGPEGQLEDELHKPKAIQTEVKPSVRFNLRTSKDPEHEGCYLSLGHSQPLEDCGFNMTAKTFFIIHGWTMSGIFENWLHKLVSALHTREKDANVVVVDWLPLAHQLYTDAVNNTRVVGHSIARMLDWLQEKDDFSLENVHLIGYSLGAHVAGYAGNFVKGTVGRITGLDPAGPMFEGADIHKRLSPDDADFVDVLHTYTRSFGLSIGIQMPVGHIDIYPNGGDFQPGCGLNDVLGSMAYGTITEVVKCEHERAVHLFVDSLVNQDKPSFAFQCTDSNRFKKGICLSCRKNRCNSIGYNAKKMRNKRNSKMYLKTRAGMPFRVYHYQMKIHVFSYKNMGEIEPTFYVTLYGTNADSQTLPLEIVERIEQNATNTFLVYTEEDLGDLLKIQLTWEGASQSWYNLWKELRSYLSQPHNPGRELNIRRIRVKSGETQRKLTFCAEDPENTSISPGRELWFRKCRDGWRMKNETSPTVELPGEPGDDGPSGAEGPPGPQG

[2] = target: T2, cynomolgus monkey EL-C2 tag (cynomolgus monkey, UniProt Q9Y5X9 21-500 (human entry), limits assumed); test: cell-based or functional assay
T2 chain: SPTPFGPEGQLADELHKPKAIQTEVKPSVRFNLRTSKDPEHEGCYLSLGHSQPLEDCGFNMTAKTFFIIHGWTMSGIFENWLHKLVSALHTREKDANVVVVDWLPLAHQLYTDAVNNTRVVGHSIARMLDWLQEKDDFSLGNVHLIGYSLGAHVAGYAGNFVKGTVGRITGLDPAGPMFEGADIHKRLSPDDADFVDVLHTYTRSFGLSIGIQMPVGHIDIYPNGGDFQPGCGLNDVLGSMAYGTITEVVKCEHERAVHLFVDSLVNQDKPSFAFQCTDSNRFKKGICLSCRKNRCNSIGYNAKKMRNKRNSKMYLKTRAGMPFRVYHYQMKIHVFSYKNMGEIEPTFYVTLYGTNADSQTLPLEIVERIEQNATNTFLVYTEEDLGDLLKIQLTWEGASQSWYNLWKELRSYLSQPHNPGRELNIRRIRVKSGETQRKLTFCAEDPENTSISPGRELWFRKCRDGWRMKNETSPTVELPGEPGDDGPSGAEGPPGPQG

rabbit EL-C2 tag [3] = target: T3, rabbit EL-C2 tag (rabbit); test: cell-based or functional assay
T3 chain: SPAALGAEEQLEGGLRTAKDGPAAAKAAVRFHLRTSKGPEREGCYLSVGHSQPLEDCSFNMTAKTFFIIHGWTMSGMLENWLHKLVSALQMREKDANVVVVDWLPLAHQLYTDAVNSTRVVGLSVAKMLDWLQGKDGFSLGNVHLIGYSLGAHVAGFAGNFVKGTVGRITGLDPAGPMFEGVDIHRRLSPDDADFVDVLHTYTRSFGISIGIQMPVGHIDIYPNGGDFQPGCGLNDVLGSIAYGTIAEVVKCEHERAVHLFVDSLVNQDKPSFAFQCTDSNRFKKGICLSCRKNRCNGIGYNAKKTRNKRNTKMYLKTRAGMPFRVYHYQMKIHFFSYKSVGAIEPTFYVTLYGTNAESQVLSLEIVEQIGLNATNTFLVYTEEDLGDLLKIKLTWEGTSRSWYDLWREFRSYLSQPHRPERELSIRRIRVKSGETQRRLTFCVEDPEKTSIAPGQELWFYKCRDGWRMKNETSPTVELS

Baboon EL-C2 tag [4] = target: T1, Baboon EL-C2 tag; test: ELISA-type titration, A450 against antibody concentration; protocol not described in the text
[5] = target: T2, cynomolgus monkey EL-C2 tag; test: as above
rabbit EL-C2 tag [6] = target: T3, rabbit EL-C2 tag; test: as above
Baboon EL-C2 tag [7] = target: T1, Baboon EL-C2 tag; test: Biacore SPR; EL heparin extract captured by anti-C2-tag antibody on CM5, antibody as analyte, bivalent fit
Procedure: (§1) The binding affinities of anti-EL antibodies were measured using Biacore. Anti-C2-tag antibody was immobilized on a sensor chip CM5 (GE HealthCare) using amine-coupling and baboon EL heparin extract or cynomolgus monkey heparin extract diluted with HBS-P (GE Healthcare) was added and EL were captured on the sensor chip. Then anti-EL antibodies diluted with HBS-P were added and the binding affinities were calculated by bivalent fitting of BIAevaluation software (FIG. 9A-G).

[8] = target: T2, cynomolgus monkey EL-C2 tag; test: as above
Procedure: as §1

Baboon EL-C2 tag [9] = target: T1, Baboon EL-C2 tag; test: Biacore SPR; EL captured by anti-C2-tag antibody, antibody as analyte, bivalent fit; column head prints nM, kd/ka gives M
Procedure: as §1

[10] = target: T2, cynomolgus monkey EL-C2 tag; test: as above
Procedure: as §1

[11] = target: T4, human EL[331-459]-mouse EL-C2 tag (human/mouse chimera, UniProt Q9WVG5 21-500 (mouse entry)); test: cell-based or functional assay
T4 chain: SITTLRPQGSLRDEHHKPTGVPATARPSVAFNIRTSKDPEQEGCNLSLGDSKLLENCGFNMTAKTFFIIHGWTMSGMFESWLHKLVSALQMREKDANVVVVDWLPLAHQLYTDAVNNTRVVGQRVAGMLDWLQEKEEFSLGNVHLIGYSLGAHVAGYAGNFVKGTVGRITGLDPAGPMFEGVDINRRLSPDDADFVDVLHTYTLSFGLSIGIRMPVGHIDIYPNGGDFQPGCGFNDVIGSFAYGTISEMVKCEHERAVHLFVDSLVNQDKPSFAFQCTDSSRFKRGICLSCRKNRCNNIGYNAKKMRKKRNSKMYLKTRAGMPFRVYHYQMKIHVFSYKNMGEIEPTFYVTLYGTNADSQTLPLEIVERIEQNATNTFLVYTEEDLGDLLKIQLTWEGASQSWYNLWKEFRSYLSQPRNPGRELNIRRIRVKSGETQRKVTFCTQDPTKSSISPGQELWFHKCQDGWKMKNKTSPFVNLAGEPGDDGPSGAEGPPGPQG

[12] = target: T5, human EL-411-459 fragment (human); test: sandwich ELISA with human EL fragment lysate, as Example 10
T5 construct: Used as HEK293 lysate
T5 chain: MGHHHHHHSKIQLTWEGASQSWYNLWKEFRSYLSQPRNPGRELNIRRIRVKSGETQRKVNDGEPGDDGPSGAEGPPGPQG

Baboon EL-C2 tag [13] = target: T1, Baboon EL-C2 tag; test: ELISA-type titration, A450 against antibody concentration; protocol not described in the text
[14] = target: T2, cynomolgus monkey EL-C2 tag; test: as above
[15] = target: T4, human EL[331-459]-mouse EL-C2 tag; test: as above
rabbit EL-C2 tag [16] = target: T3, rabbit EL-C2 tag; test: as above
[17] = target: T2, cynomolgus monkey EL-C2 tag; test: as above
rabbit EL-C2 tag [18] = target: T3, rabbit EL-C2 tag; test: as above
Baboon EL-C2 tag [19] = target: T1, Baboon EL-C2 tag; test: as above
[20] = target: T2, cynomolgus monkey EL-C2 tag; test: as above
[21] = target: T4, human EL[331-459]-mouse EL-C2 tag; test: as above
rabbit EL-C2 tag [22] = target: T3, rabbit EL-C2 tag; test: as above

Binder | Neutralizing activity_IC50 (Baboon EL-C2 tag [1]) [nM] | Neutralizing activity_IC50 [2] [nM] | Neutralizing activity_IC50 (rabbit EL-C2 tag [3]) [nM] | koff (Baboon EL-C2 tag [7]) [s⁻¹] | kon (Baboon EL-C2 tag [7]) [M⁻¹ s⁻¹] | koff [8] [s⁻¹] | kon [8] [M⁻¹ s⁻¹] | Kd (Baboon EL-C2 tag [9]) [nM] | Kd [10] [nM] | Neutralizing activity_IC50 [11] [nM] | binding result [12] | also measured
8F5 antibody (antibody, IgG2a, V domains shown) VH: QVTLKESGPGILQPSQTLSLTCSFSGFSLSTSNMGVGWIRQPSGKGLEWLAHIWWNDYKYYNTALKSRLTISKDTSNNQVFLKIASLDTADTATYYCARIGGGTPLDYWGQGTSLTVSS VL: DIQMAQSPSSLSASLGGKVTITCKASQDIHTYIAWYQHKPGKGPRLLMLYTSTLQPGIPSRFSGSGSGRDYSFSISNLEPEDIATYYCLQYDDLLWTFGGGTKLEIK | 4.8 | 3 | 98 | 0.00021 | 140000 | 0.00014 | 140000 | ~1.5 | 1 |  |  | EC50 (read off the curve) (Baboon EL-C2 tag [4]): ~0.01 µg/mL; EC50 (read off the curve) [5]: ~0.005 µg/mL; EC50 (read off the curve) (rabbit EL-C2 tag [6]): ~0.01 µg/mL
16A11 antibody (antibody, IgG1, V domains shown) VH: QVTLKESGPGILQPSQTLSLTCSFSGFSLSTSGMGVGWVRQPSGKGLEWLAHIWWNDYYYYKTALKSRLTISKDTSNNQVFLKIASVDTVDTATYYCARMAPGTPFPSWGQGTLVTVSA VL: DIQMTQSPSSLSASLGGKVTITCKASQDINRYIAWYQHKPGKGPRLLIHYTSTLQPGIPSRFSGSGSGRDYSFSISNLEPEDIATYYCLQYDILLWTFGGGTKLEIK | 6.2 | 6.2 | 69 | 0.00012 | 120000 | 0.00039 | 140000 | 1 | 2.8 | 6.1 | binds | EC50 (read off the curve) [17]: ~0.02 µg/mL; EC50 (read off the curve) (rabbit EL-C2 tag [18]): ~0.04 µg/mL

Continued by falling Kd (Baboon EL-C2 tag [9]), values first:

Neutralizing activity_IC50 (Baboon EL-C2 tag [1]) [nM] | Neutralizing activity_IC50 [2] [nM] | Neutralizing activity_IC50 (rabbit EL-C2 tag [3]) [nM] | koff (Baboon EL-C2 tag [7]) [s⁻¹] | kon (Baboon EL-C2 tag [7]) [M⁻¹ s⁻¹] | koff [8] [s⁻¹] | kon [8] [M⁻¹ s⁻¹] | Kd (Baboon EL-C2 tag [9]) [nM] | Kd [10] [nM] | Neutralizing activity_IC50 [11] [nM] | binding result [12] | Binder | also measured
6.6 | 6.2 | 207 | 0.00014 | 93000 | 9.9e-05 | 180000 | 1.5 | 0.55 | 18 | binds | 3B1 antibody (antibody, IgG1, V domains shown) VH: QVTLKESGPGILQPSQTLSLTCSFSGFSLSTSGVGVGWIRQPSGKGLEWLAHIWWNDNKYYNTALKSRLTISKDTSNNQVFLKIASVDTADTATYFCARSYDGYPFDYWGQGTLVTVSA VL: DIQMTQSPSSLSASLGGKVTITCKASQDINKYIVWYQHKPGKGPRLLIHHTSTLQPGIPSRFSESGSGRDYSFSISNLEPEDIASYYCLQYDTLLWTFGGGTKLEIR | EC50 (read off the curve) (Baboon EL-C2 tag [19]): ~0.02 µg/mL; EC50 (read off the curve) [20]: ~0.006 µg/mL; EC50 (read off the curve) [21]: ~0.03 µg/mL; EC50 (read off the curve) (rabbit EL-C2 tag [22]): ~0.02 µg/mL
5.7 | 4.2 | 85 | 0.00016 | 250000 | 9.4e-05 | 160000 | 0.64 | 0.59 | 6.9 | no binding | 25E4 antibody (antibody, IgG2b, V domains shown) VH: QVALKESGPGILQPSQTLSLTCSFSGFSLSTSGMGVGWIRQPSGKGLEWLAHIWWHGNKYYSTALKSRLTISKDTSNNQVFLKIASVDTADTATYYCARISDGYPLDYWGQGTSVTVSS VL: DIQMTQSPSSLSASLGGKVTITCKASQDINKYIVWYQQKPGKGPRLLIHYTSTLQPGFPSRFSGSGSGRDYSLSITNLEPEDIATYYCLQYDNLLWTFGGGTKLEIK | EC50 (read off the curve) (Baboon EL-C2 tag [13]): ~0.02 µg/mL; EC50 (read off the curve) [14]: ~0.007 µg/mL; EC50 (read off the curve) [15]: ~0.02 µg/mL; EC50 (read off the curve) (rabbit EL-C2 tag [16]): ~0.01 µg/mL

From patent US20150025225A1 (SHIONOGI, published 2015)
